First the molecules themselves.
B1: 31874B (antibody, V domains shown)
VH: EVQLVESGGGLVQPGGSLRLSCAASGFAFSSYAMTWVRQAPGKGLEWVSVISGTGGSTYYADSVKGRFTISRDNSKNTLYLQMNSLRAEDTAVYYCAKGGAARRMEYFQYWGQGTLVTVSS
VL: DIQMTQSPSSLSASVGDRVTITCRASQGISNYLAWYQQKPGKVPNLLIYAASTLQSGVPSRFSGSGSGTDFTLTISSLQPEDVATYYCQKYNSAPLTFGGGTKVEIK
notes: Anti-hTfR antibody of the initial screen; only variable domains are tied to it
B2: 31863B (antibody, V domains shown)
VH: EVQLVESGGGLVQPGGSLRLSCAASGFTFNSYAMTWVRQAPGKGLEWVSFIGGSTGNTYYAGSVKGRFTISSDNSKKTLYLQMNSLRAEDTAVYYCAKGGAARRMEYFQHWGQGTLVTVSS
VL: DIQMTQSPSSLSASIGDRVTITCRASQGISNYLAWYQQKPGKVPKLLIYAASTLQSGVPSRFSGSGSGTDFTLTISSLQPEDVATYYCQNHNSVPLTFGGGTKVEIK
notes: as for B1
B3: 69323 (antibody, V domains shown)
VH: EVQLVESGGGLVQPGRSLRLSCAASGFTFDDYAMHWVRQAPGKGLEWVSGISWNSGYIGYADSVKGRFTISRDNAENSLHLQMNSLRAEDTALYYCARGGSTLVRGVKGGYYGMDVWGQGTTVTVSS
VL: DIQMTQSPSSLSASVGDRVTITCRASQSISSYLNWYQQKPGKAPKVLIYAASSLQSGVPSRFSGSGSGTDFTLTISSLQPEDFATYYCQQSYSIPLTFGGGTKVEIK
notes: as for B1
B4: 12844B (antibody, V domains shown)
VH: EVQLVESGGSVVRPGGSLRLSCEASGFTFDDYGMSWVRQDPGKGLEWVSGINWNGDRTNYADSVKGRFIISRDNAKNSVYLQMNSLRAEDSALYHCARDQGLGVAATLDYWGQGTLVTVSS
VL: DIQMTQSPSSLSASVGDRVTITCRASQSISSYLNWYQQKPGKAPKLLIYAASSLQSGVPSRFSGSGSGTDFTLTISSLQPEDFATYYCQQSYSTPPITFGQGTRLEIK
notes: as for B1
B5: 12835B (antibody, V domains shown)
VH: EVQLVESGGGLIQPGGSLRLSCEASGFTFRNYEMNWVRQAPGKGLEWVSYISSSGNMKDYAESVKGRFTISRDNVKNSLQLQMNSLRVEDTAVYYCARDEFPYGMDVWGQGTTVTVSS
VL: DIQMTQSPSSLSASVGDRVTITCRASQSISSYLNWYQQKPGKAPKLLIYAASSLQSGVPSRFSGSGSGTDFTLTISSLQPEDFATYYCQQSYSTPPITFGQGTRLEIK
notes: as for B1
B6: 12816B (antibody, V domains shown)
VH: QVQLVESGGGLVKPGGSLRLSCAASGFTFSDYYMNWIRQAPGKGLEWVSYISSSGTTIYYADSVKGRFTISRDNAKKSLYLEMNSLRAEDTAVYYCAREGYGNDYYYYGIDVWGQGTTVTVSS
VL: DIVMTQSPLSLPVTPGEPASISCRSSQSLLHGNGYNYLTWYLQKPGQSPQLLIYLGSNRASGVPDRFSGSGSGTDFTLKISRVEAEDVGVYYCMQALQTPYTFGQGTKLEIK
notes: as for B1
B7: 69261 (antibody, V domains shown)
VH: QVQLVESGGGLVKPGGSLRLSCAASGFTFSVYYMNWIRQAPGKGLEWVSYISSSGSTIYYADSVKGRFTISRDNAKNSLYLQMNSLRAEDTAVYYCGREGYSGTYSYYGMDVWGQGTTVTVSS
VL: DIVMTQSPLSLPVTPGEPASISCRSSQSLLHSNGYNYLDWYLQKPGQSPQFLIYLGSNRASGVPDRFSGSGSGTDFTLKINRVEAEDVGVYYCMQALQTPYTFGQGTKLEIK
notes: as for B1
B8: 12833B (antibody, V domains shown)
VH: QVQLVESGGGVVQPGRSLRLSCAASGFTFSSFGMHWVRQAPGKGLEWVIFISYDGSDKYYADSVKGRFAISRDSSKNTLYLQMNSLRAEDTAVYYCAKENGILTDSYGMDVWGQGTTVTVSS
VL: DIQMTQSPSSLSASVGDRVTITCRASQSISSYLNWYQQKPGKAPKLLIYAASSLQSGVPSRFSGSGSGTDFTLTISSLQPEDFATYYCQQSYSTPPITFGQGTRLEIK
notes: as for B1
B9: 69305 (antibody, V domains shown)
VH: QVQLVESGGGVVQPGRSLRLSCAASGFTFSSYGMHWVRQAPGKGLEWVAVIWYDGSNKYYADSVKGRFTISRDISKNTLYLQMNSLRAEDTAVYYCAGQLDLFFDYWGQGTLVTVSS
VL: DIQMTQSPSSLSASVGDRVTITCRASQSIDRYLNWYRQKPGKAPKLLIYTTSSLQSGVPSRFSGSGSGTDFTLTLSSLQPEDFATYYCQQSYSPPLTFGGGTKVEIK
notes: as for B1
B10: 12808B (antibody, V domains shown)
VH: QLQLQESGPGLVKPSETLSLTCTVSGESISSNTYYWGWIRQPPGKGLEWIGSIDYSGTTNYNPSLKSRVTISVDTSRNHFSLRLRSVTAADTAVYYCAREWGNYGYYYGMDVWGQGTTVTVSS
VL: DIQMTQSPSSLSASVGDRVTINCRASQGIRNDLGWYQQKPGKAPKRLIYAASSLQSGVPLRFSGSGSGTEFTLTINNLQPEDFATYYCLSHNSYPWTFGQGTKVEIK
notes: as for B1
B11: 12798B (antibody, V domains shown)
VH: EVQLVESGGDLVQPGRSLRLSCAASGFTFDDYAMHWVRQAPGKGLEWVSGISWNSATRVYADSVKGRFTISRDNAKNFLYLQMNSLRSEDTALYHCAKDMDISLGYYGLDVWGQGTTVTVSS
VL: not shown
notes: as for B1
B12: 12834B (antibody, V domains shown)
VH: QVQLVQSGAEVKKPGASVKVSCKASGYTFTSYGISWVRQAPGQGLEWMGWISVYHGNTNYAQKFQGRVTMTTDTSTSTAYMELRSLRSDDTAVYYCAREGYYDFWSGYYPFDYWGQGTLVTVSS
VL: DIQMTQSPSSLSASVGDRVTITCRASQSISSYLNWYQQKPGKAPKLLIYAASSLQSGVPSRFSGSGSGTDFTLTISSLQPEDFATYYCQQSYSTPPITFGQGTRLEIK
notes: as for B1
B13: 12847B (antibody, V domains shown)
VH: EVQLVESGGGLVQPGRSLRLSCAASGFTFDDYAMNWVRQAPGKGLEWVSGISWSSGSMDYADSVKGRFTISRDNAKNSLYLQMNSLRTEDTALYYCAKAREVGDYYGMDVWGQGTTVTVSS
VL: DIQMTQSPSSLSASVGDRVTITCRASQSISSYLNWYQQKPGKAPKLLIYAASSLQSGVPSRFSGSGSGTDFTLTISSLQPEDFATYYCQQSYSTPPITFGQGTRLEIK
notes: as for B1
B14: 69329 (antibody, V domains shown)
VH: EVQLVESGGGLVQPGGSLRLSCAASGFTFSNYWMTWVRQAPGKGLEWVANIKEDGSEKDYVDSVKGRFTISRDNAKNSLYLQMNSLRGEDTAVYYCARDGEQLVDYYYYYVMDVWGQGTTVTVSS
VL: DIQMTQSPSSVSASVGDRVTITCRASQGISSWLAWYQQKPGKAPKLLIYAASSLQSGVPSRFSGSGSGTDFTLTISSLQPEDFATYYCQKANSFPYTFGQGTKLEIK
notes: as for B1
B15: 12812B (antibody, V domains shown)
VH: QVQLVQSGAEVKKPGSSVRVSCKASRGTFSSYAISWVRQAPGQGLEWMGGIIPIFGTANYAQKFLARVTITADESTSTAYMELSSLRSEDTAVYYCAREKGWNYFDYWGQGTLVTVSS
VL: DIQMTQSPPSVSASVGDRVTITCRASQGISSWLAWYQQKPGKAPKLLIYAASSLQSGVPSRFSGSGSGTDFTLTISSLQPEDFATYYCQQANSFPRTFGQGTKVEIK
notes: as for B1
B16: 12799B (antibody, V domains shown)
VH: QITLKESGPTLVKPTQTLTLTCTFSGFSLSTSGVGVVWIRQPPGKALEWLALIYWNDHKRYSPSLGSRLTITKDTSKNQVVLTMTNMDPVDTATYYCAHYSGSYSYYYYGLDVWGQGTTVTVSS
VL: DIQMTQSPSSVSASVGDRVTITCRASQGIASWLAWYQQKPGKAPELLIYAASSLQGGVPSRFSGSGSGTDFTLTISSLQPEDFAIYYCQQANYFPWTFGQGTKVEIK
notes: as for B1
B17: 69307 (antibody, V domains shown)
VH: EVQLVESGGGLVQPGGSLRLSCTASGFTFSNYWMTWVRQAPGKGLEWVANIKEDGSEKEYVDSVKGRFTISRDNAKNSLYLQMNSLRGEDTAVYYCARDGEQLVDYYYYYVMDVWGQGTTVTVSS
VL: DIQMTQSPSSVSASVGDRVTITCRASQGISSWLAWYQQKPGKAPKLLIYAASSLQSGVPSRFSGSGSGTDFTLTISSLQPEDFATYYCQKADSLPYAFGQGTKLEIK
notes: as for B1
B18: 12843B (antibody, V domains shown)
VH: EVQLVESGGGLVQPGGSLRLSCAASGFTFNIFEMNWVRQAPGKGLEWISYISSRGTTTYYADSVRGRFTISRDNAKNSLYLQMNSLRAEDTAVYYCARDYEATIPFDFWGQGTLVTVSS
VL: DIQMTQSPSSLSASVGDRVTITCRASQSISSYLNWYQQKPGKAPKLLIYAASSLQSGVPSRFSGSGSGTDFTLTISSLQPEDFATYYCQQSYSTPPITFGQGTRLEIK
notes: as for B1
B19: 12795B (antibody, V domains shown)
VH: EVQLVESGGGLVQPGGSLRLSCATSGFTFTSYDMKWVRQAPGLGLEWVSAISGSGGNTYYADSVKGRFTISRDNSRNTLYLQMNSLRAEDTAVYYCTRSHDFGAFDYFDYWGQGTLVTVSS
VL: DIQMTQSPSSLSASVGDRVTITCRASQGIRDHFGWYQQKPGKAPKRLIYAASSLHSGVPSRFSGSGSGTEFTLTISSLQPEDFATYYCLQYDTYPLTFGGGTKVEIK
notes: as for B1
B20: 12801B (antibody, V domains shown)
VH: EVQLLESGGALVQPGGSLRLSCAASGFTFTSYAMHWVRQAPGKGLEWVSSIRGSGGGTYSADSVKGRFTISRDNSRDTLYLQMNSVRAEDTAVYYCARSHDYGAFDFFDYWGQGTLVTVSS
VL: DIQMTQSPSSLSASVGDRVTITCRASQGIRTDLGWYQQKPGKAPKRLIYAASSLQSGVPSRFSGSGSGTEFTLTISSLRPEDFATFYCLQYNSYPLTFGGGTKVEIK
notes: as for B1
B21: 12839B (antibody, V domains shown)
VH: QVQLVESGGGVVQPGRSLRLSCAASGFPFSNYVMYWVRQAPGKGLEWVALIFFDGKKNYHADSVKGRFTITRDNSKNMLYLQMNSLRPEDAAVYYCAKIHCPNGVCYKGYYGMDVWGQGTTVTVSS
VL: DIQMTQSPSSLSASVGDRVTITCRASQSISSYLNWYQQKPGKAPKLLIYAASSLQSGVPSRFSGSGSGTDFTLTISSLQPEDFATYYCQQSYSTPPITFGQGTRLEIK
notes: as for B1
B22: 12845B (antibody, V domains shown)
VH: EVQLVESGGGLVQPGGSLRLSCAASGFTVSNYEMNWVRQAPGKGLEWVSYISSSTSNIYYADSVKGRFTISRDNAENSLYLQMNSLRVEDTAVYYCVRDGIVVVPVGRGYYYYGLDVWGQGTTVTVSS
VL: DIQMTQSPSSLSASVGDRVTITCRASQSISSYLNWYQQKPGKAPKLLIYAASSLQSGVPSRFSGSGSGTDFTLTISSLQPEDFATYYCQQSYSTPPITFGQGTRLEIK
notes: as for B1
B23: 12848B (antibody, V domains shown)
VH: EVQLVESGGGLVQPGRSLTLSCAASGFTFDNFGMHWVRQGPGKGLEWVSGLTWNSGVIGYADSVKGRFTISRDNAKNSLYLQMNSLRPEDTALYYCAKDIRNYGPFDYWGQGTLVTVSS
VL: not shown
notes: as for B1
B24: 12850B (antibody, V domains shown)
VH: QVQLVQSGAEVKKPGSSVKVSCKASGGTFNTYAITWVRQAPGQGLEWMGGIIPISGIAEYAQKFQGRVTITTDDSSTTAYMELNSLRSEDTAVYYCASWNYALYYFYGMDVWGRGTTVTVSS
VL: not shown
notes: as for B1
B25: 12802B (antibody, V domains shown)
VH: QVQLVESGGGLVKPGGSLRLSCAASGFTFSDYFMSWIRQAPGKGLEWVSYISSTGSTINYADSVKGRFTISRDNVKNSLYLQMTSLRVEDTAVYYCTRDNWNYEYWGQGTLVTVSS
VL: EIVMTQSPATLSVSPGERATLSCRASQSVSINLAWYQQKPGQAPRLLIFVASTRATGIPARFSGSGSGTEFTLTISSLQSEDFATYYCQQYDIWPYTFGQGTKLEIK
notes: as for B1
B26: 12841B (antibody, V domains shown)
VH: EVQLVESGGGLVQPGGSLRLSCAASGFTFSNYWMNWVRQAPGKGLEWVANIKEDGGKKLYVDSVKGRFTISRDNAKNSLFLQMNSLRAEDTAVYYCAREDTTLVVDYYYYGMDVWGQGTTVTVSS
VL: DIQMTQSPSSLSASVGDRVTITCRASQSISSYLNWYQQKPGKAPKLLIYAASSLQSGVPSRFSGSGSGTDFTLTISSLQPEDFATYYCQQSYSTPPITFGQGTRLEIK
notes: as for B1

In this test the target is T1, human transferrin receptor 1 (hTfR) (human, UniProt P02786 89-760, limits assumed).
T1 construct: also called TFRC; transferrin receptor protein 1
T1 sequence (P02786 89-760 limits assumed): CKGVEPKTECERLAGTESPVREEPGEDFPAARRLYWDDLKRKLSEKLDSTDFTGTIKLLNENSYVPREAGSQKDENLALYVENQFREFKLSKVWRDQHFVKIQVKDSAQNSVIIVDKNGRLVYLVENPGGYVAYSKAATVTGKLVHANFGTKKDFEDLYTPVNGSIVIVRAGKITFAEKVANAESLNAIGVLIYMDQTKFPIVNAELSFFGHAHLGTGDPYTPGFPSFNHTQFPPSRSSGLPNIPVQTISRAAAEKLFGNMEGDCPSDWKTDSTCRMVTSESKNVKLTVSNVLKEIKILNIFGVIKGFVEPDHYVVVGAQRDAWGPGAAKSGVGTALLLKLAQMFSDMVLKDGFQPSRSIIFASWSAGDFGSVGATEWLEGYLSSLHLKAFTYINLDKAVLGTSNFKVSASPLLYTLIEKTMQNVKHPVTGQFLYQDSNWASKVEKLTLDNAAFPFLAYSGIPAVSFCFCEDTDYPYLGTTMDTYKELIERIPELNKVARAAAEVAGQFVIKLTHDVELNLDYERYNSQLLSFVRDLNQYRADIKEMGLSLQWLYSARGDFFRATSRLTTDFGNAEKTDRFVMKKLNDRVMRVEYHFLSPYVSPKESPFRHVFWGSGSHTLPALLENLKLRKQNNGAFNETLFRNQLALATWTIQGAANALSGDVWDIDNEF
The test can be described thus: in vitro binding screen, method not described.
As to B1, the binding result is given as “binds”.

In the case of B2, the binding result is given as “binds”.

In the case of B3, the binding result is on record as “binds”.

As to B4, the binding result was “binds”.

Regarding B5, the binding result was “binds”.

For B6, the binding result is given as “binds”.

For B7, the binding result was “binds”.

As for B8, the binding result is “binds”.

As to B9, the binding result is recorded as “binds”.

With B10, the binding result is “binds”.

Consider B11, for which the binding result was “binds”.

B12: the binding result is on record as “binds”.

For B13, the binding result is on record as “binds”.

Take B14: the binding result is given as “binds”.

Regarding B15, the binding result is listed as “binds”.

As for B16, the binding result is listed as “binds”.

Consider B17, for which the binding result was “binds”.

As to B18, the binding result is reported as “binds”.

Turning to B19, the binding result was “binds”.

For B20, the binding result is reported as “binds”.

Consider B21, for which the binding result is recorded as “binds”.

For the molecule B22, the binding result is recorded as “binds”.

On to B23, for which the binding result is “binds”.

As to B24, the binding result is given as “binds”.

Take B25: the binding result is on record as “binds”.

As for B26, the binding result is reported as “binds”.
